Target: the molecule itself

B1: zSIGIRR-TIR (domain or fragment)
chain: KMYDAYISYVNNENDRKFVNFILKPHLENKYSHKLLLNNTNILPGAEPSAELLMNISRCQRLIVVLSQSYLEQEWCTTNFRQGLWHLIELSRKPIFIIFQSQQKQISQDISQQLRQHQPCITMITWGAHSMTPSSGFWKELALVMPRK
- stoichiometry N: 2
